Reference: the supplement of paper PMC9233669
This sample holds only a part of the variants without activity.

How the values were obtained:
biotinyl-Phe-oxazolone = assay: self-aminoacylation, catalytic enhancement (BFO) (fold over background); higher = more active; k-Seq, kA / k0A0; sequences stand for … in GGGAAUGGAUCCACAUCUACGAAUUC…UUCACUGCAGACUUGACGAAGCUG
Procedure, shortened: (§1)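 Working in 50 μL HEPES/NaCl/KCl/MgCl2/CaCl2 buffer with 5% acetonitrile at pH 6.9–7.0, mutagenized RNA pools (0.43 μM; 21-nt variable region) were reacted with 2–1250 μM of each biotinyl-aminoacyl-oxazolone for 90 minutes at room temperature. Streptavidin capture followed, with quantification by triplicate qPCR and Illumina sequencing. Catalytic enhancement is reported as median kA over the uncatalyzed rate, the low-activity peak of a bimodal Gaussian fit to the data.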

biotinyl-Ile-oxazolone = assay: self-aminoacylation, catalytic enhancement (BIO) (fold over background); higher = more active; k-Seq, kA / k0A0; sequences stand for … in GGGAAUGGAUCCACAUCUACGAAUUC…UUCACUGCAGACUUGACGAAGCUG
Procedure, shortened: as §1

biotinyl-Met-oxazolone = assay: self-aminoacylation, catalytic enhancement (BMO) (fold over background); higher = more active; k-Seq, kA / k0A0; sequences stand for … in GGGAAUGGAUCCACAUCUACGAAUUC…UUCACUGCAGACUUGACGAAGCUG
Procedure, shortened: as §1

biotinyl-Val-oxazolone = assay: self-aminoacylation, catalytic enhancement (BVO) (fold over background); higher = more active; k-Seq, kA / k0A0; sequences stand for … in GGGAAUGGAUCCACAUCUACGAAUUC…UUCACUGCAGACUUGACGAAGCUG
Procedure, shortened: as §1

biotinyl-Leu-oxazolone = assay: self-aminoacylation, catalytic enhancement (BLO) (fold over background); higher = more active; k-Seq, kA / k0A0; sequences stand for … in GGGAAUGGAUCCACAUCUACGAAUUC…UUCACUGCAGACUUGACGAAGCUG
Procedure, shortened: as §1

biotinyl-Trp-oxazolone = assay: self-aminoacylation, catalytic enhancement (BWO) (fold over background); higher = more active; k-Seq, kA / k0A0; sequences stand for … in GGGAAUGGAUCCACAUCUACGAAUUC…UUCACUGCAGACUUGACGAAGCUG
Procedure, shortened: as §1

Sequence	self-aminoacylation (biotinyl-Phe-oxazolone)	self-aminoacylation (biotinyl-Ile-oxazolone)	self-aminoacylation (biotinyl-Met-oxazolone)	self-aminoacylation (biotinyl-Val-oxazolone)	self-aminoacylation (biotinyl-Leu-oxazolone)	self-aminoacylation (biotinyl-Trp-oxazolone)
AAGUUUGCUAACAGUCGCCAG [Fam3.1 aminoacylation ribozyme variant]	1.8	1.61	1.45	1.33	1.17	2.07
AAGUUUGCUAACAGUCGCGAG [Fam3.1 aminoacylation ribozyme variant]	1.64	1.02	0.591	1.12	1.24	2.46
AAGUUUGCUAAGAGUAGCAAG [Fam3.1 aminoacylation ribozyme variant]	1.3	0.857	1.1	0.727	1.21	1.17
AAGUUUGCUAAGAGUCGCAAA [Fam3.1 aminoacylation ribozyme variant]	2.02	1.01	1.25	0.889	0.88	1.12
AAGUUUGCUAAGAGUCGUAAG [Fam3.1 aminoacylation ribozyme variant]	7.41	0.61	0.708	0.757	0.535	2.31
AAGUUUGCUAAUAAUCACAAG [Fam3.1 aminoacylation ribozyme variant]	1.25	1.08	1.05	0.832	1.08	1.1
AAGUUUGCUAAUAAUCGCAAG [Fam3.1 aminoacylation ribozyme variant]	1.6	0.735	0.637	0.746	0.602	0.876
AAGUUUGCUAAUAAUCGCGAG [Fam3.1 aminoacylation ribozyme variant]	1.24	0.983	0.863	0.808	0.744	1.47
AAGUUUGCUAAUACUCGCCAG [Fam3.1 aminoacylation ribozyme variant]	0.993	0.916	0.629	0.836	0.655	0.773
AAGUUUGCUAAUACUUGCAAG [Fam3.1 aminoacylation ribozyme variant]	0.999	0.743	0.582	0.625	0.586	0.685
AAGUUUGCUAAUAGACGCAAG [Fam3.1 aminoacylation ribozyme variant]	0.87	0.526	0.477	0.587	0.459	0.574
AAGUUUGCUAAUAGACGCACG [Fam3.1 aminoacylation ribozyme variant]	0.811	0.543	0.472	0.528	0.365	0.572
AAGUUUGCUAAUAGACGCUAG [Fam3.1 aminoacylation ribozyme variant]	0.777	0.547	0.754	0.654	0.495	0.501
AAGUUUGCUAAUAGCAGCAAG [Fam3.1 aminoacylation ribozyme variant]	1.12	0.793	0.683	0.851	0.646	0.754
AAGUUUGCUAAUAGCCACAAG [Fam3.1 aminoacylation ribozyme variant]	1.59	0.821	0.55	0.827	0.833	0.834
AAGUUUGCUAAUAGCCGCACG [Fam3.1 aminoacylation ribozyme variant]	1.41	1.31	1.08	1.21	1.32	2.52
AAGUUUGCUAAUAGGCGCAAU [Fam3.1 aminoacylation ribozyme variant]	1.52	1.6	1.71	1.58	1.46	0.968
AAGUUUGCUAAUAGGCGCACG [Fam3.1 aminoacylation ribozyme variant]	2.42	0.981	0.568	0.833	0.865	0.485
AAGUUUGCUAAUAGGCGGAAG [Fam3.1 aminoacylation ribozyme variant]	0.916	0.806	0.721	0.89	0.675	0.922
AAGUUUGCUAAUAGUACCAAG [Fam3.1 aminoacylation ribozyme variant]	1.41	1.14	1.22	1.15	0.791	0.838
AAGUUUGCUAAUAGUAGCCAG [Fam3.1 aminoacylation ribozyme variant]	1.04	0.868	0.77	0.769	0.78	2.24
AAGUUUGCUAAUAGUAGCGAG [Fam3.1 aminoacylation ribozyme variant]	1.65	1.21	0.995	1	0.962	1.14
